Data on one molecule can be found in patent publication US5807729A, “Metalloprotease having increased activity” (Novo Nordisk A/S, priority 1995, dated 1998).

The subject of one data set is succinylated casein. As to the kind of experiment: Casein hydrolysis, succinylated casein assay (QuantiCleave, BCA, 600 nm). Type of data set: biochemical. How it is done:
400 ul of casein solution (Pierce) is added to small test tubes along with 100 ul of protease. The tubes are vortexed and incubated at room temperature for 40 minutes. The incubation (and assay) buffer is 0.1 M borate, 2 mM CaCl2, and 10 mM dimethylglutarate, pH 6.5. At the end of the incubation, 60 microliters of trichloroacetic acid (100% w/v) is added, and the tubes are vortexed and centrifuged for 1 minute at 5000×g. 20 microliters of the resulting supernatant is placed into a microtiter plate well with 200 microliters of the BCA working reagent (Pierce). The plates are then vortexed and incubated another 30 minutes, then read at 600 nm using a Biomek 1000 microtiter plate reader.
400 microliters of casein solution (Pierce) are added to small test tubes along with 100 microliters of protease in buffer "A" (0.1M borate, 2 mM CaCl2 and 10 mM dimethylglutaric acid). At the end of the incubation, 60 microliters of trichloroacetic acid (100% w/v) is added, and the tubes are vortexed and centrifuged for 1 minute at 5000×g. 20 microliters of the resulting supernatant is placed into a microtiter plate well with 200 microliters of the BCA working reagent (Pierce). The plates are then vortexed and incubated another 30 minutes, then read at 600 nm using a Biomek 1000 microtiter plate reader.

Data set [1] has as its system pro-trypsin-like F. oxysporum protease. In words: Processing of pro-trypsin-like F. oxysporum protease to active trypsin-like protease.
Procedure: Activatable pro-trypsin-like F. oxysporum protease is determined in microtiter wells as released trypsin-like F. oxysporum protease (tryptic) activity from pro-trypsin-like F. oxysporum protease after a 40 minute pre-incubation at room temperature with purified Fusarium oxysporum metalloprotease (approximately 6 ug).
Processed pro-trypsin-like F. oxysporum protease(i.e. mature trypsin-like F. oxysporum protease) activity is determined directly from microtiter plates containing the pre-incubated metalloprotease/pro-trypsin-like F. oxysporum protease cocktail (total volume=100 microliters), and 100 microliters of substrate (87 mg/ml.L-BAPNA stock in DMSO diluted 50-fold in sample buffer). Again, active trypsin-like F. oxysporum protease is determined as an increase in absorbance at 405 nm immediately after L-BAPNA addition.
Purified pro-trypsin-like F. oxysporum protease is added to fresh A. oryzae fermentation broths containing the recombinant p45 metalloprotease (approximately 90 mg/L) and incubated for either 1, 2, or 3 hours at room temperature. Levels of pro-trypsin-like F. oxysporum protease in the incubation mixtures range from 100 ug/ml to 13 mg/ml.
Purified pro-trypsin-like F. oxysporum protease (100 ug/ml) is added to various amounts of either purified recombinant p45 metalloprotease or purified B.s. metalloprotease.

B1: p45 Metalloprotease: metalloprotease purified from Fusarium oxysporum DSM 2672 broth, 45 kDa band; also produced recombinantly in A. oryzae (protein)
chain: MRFSDSLLLIGLSSLAGAHPSRRAPNPSPLSKRGLDLEAFKLPPMAEYVPQDEVPDDVSAKVVTKRADYTETAKDLVKSTFPKATFRMVTDHYVGSNGIAHVNFKQTVNGIDIDNADFNVNIGADGEVFSYGNSFYEGKIPGPLTKRDEKDPVDALKDTVDVLSLPVEADKAKAEKKSKNHYTFTGTKGTVSKPEAKLTYLVDENKELKLTWRVETDIVDNWLLTYVNAAKTDEVVGVVDYVNEATYKVYPWGVNDPSKGSRSTVENPWNLAASEFTWLSDGSNNYTTTRGNNGIAQVNPSGGSTYLNNYRPDSPSLKFEYDYSTSTTTPTTYRDASIAQLFYTANKYHDLLYLLGFTEQAGNFQTNNNGQGGVGNDMVILNAQDGSGTNNANFATPADGQPGRMRMYLWTYSTPQRDCSFDAGVVIHEYTHGLSNRLTGGPANSGCLPGGESGGMGEGWGDFMATAIHIQSKDTRASNKVMGDWVYNNAAGIRAYPYSTSLTTNPYTYKSVNSLSGVHAIGTYWATVLYEVMWNLIDKHGKNDADEPKFNNGVPTDGKYLAMKLVVDGMSLQPCNPNMVQARDAIIDADTALTKGANKCEIWKGFAKRGLGTGAKYSASSRTESFALPSGC
On to B1, for which the “Specific Activity, substrate Succinylated Casein (maximal level)” value with succinylated casein is on record as 0.30 O.D. The “maximum absorbance, casein hydrolysis” value with succinylated casein (pH 6.5, room temperature, 40 minutes, FIG. 8) is given as “around 0.3 O.D. units”. For the same molecule, in the data set on succinylated casein (relative to thermolysin, dispase, B.s. neutral metalloprotease, listed as p45), the “maximum absorbance / maximal hydrolyzed casein relative to the other proteases” value is reported as “about 60%”. Besides, the “Specific Activity, substrate pro-trypsin” value in data set [1] came to 1.2 g trypsin/min*mg. Further, the “share of activatable pro-trypsin-like protease processed” value in data set [1] (A. oryzae broth with approx. 90 mg/L recombinant p45, pro-trypsin 100 ug/ml to 13 mg/ml, room temperature, within 1 hour) is on record as 80-100%. Besides, the “moles of pro-trypsin-like protease processed per mole of metalloprotease” value in data set [1] (pro-trypsin-like protease 100 ug/ml, within 1 hr.) is on record as “about 50 moles”.
